Data on 8 molecules can be found in US20250002587A1 (University of California, published 2025).

The target in assay [1] is T1, cell surface-expressed human αvβ8 (human, UniProt P06756 31-1048; P26012 43-769).
T1 construct: whole, on cells; also called αvβ8 on SNB19 human astrocytoma cells
Briefly: FACS titration on SNB19 human astrocytoma cells. On the procedure:
(§1) The affinities of humanized, affinity-matured anti-αvβ8 IgGs (ADWA16-1, ADWA16-2, ADWA16-3, and ADWA16-4), a chimeric version of the parent ADWA16 murine IgG (ADWA16-chimera), and ADWA16 were measured on SNB19 human astrocytoma cells by FACS. IgGs were incubated at various concentrations with SNB19 cells for 1 hr at RT in PBS. Cells were washed twice with PBS and binding was detected by incubation with fluorescently-labeled anti-human (ADWA16-1, ADWA16-2, ADWA16-3, ADWA16-4, and ADWA16-chimera) or anti-mouse (ADWA16) secondary antibodies followed by two PBS wash steps and analysis by FACS. Binding affinities (shown in Table 3) were calculated using curve-fitting software.

The target of assay [2] is T1, cell surface-expressed human αvβ8. The assay is described as follows: cell-based or functional assay.
Assay [3] concerns the target T2, recombinant mouse αvβ8 (mouse, UniProt P43406 31-988; Q0VBD0 43-681, limits assumed).
T2 construct: Soluble recombinant heterodimer used as analyte at 200 nM in BLI
Briefly: bio-layer interferometry, IgG on anti-human Fab-CH1 tips, αvβ8 200 nM. The procedure: (§2) The affinities of humanized, affinity-matured anti-αvβ8 IgGs (ADWA16-3 and ADWA16-3.2) and a chimeric version of the parent ADWA16 murine IgG (ADWA16-chimera) were measured for recombinant human and mouse αvβ8 using bio-layer interferometry. Anti-human Fab-CH1 tips were loaded with humanized anti-αvβ8 IgGs or chimeric ADWA16 followed by an association step with either human or mouse αvβ8 (200 nM) and a subsequent dissociation step. All steps were carried out in binding buffer (25 mM Tris, 0.15 M NaCl, 0.05% Tween-20, pH 7.5). Binding affinities (shown in Table 4) were calculated using curve-fitting software.

Assay [4] addresses T3, recombinant human αvβ8 (human, UniProt P06756 31-992; P26012 43-684).
T3 construct: Soluble recombinant heterodimer used as analyte at 200 nM in BLI
The description is as above. On the procedure:
as §2

Assay [5] addresses T2, recombinant mouse αvβ8. The assay is described as above. The procedure:
(§3) The affinities of humanized, affinity-matured anti-αvβ8 IgGs (ADWA16-1, ADWA16-2, ADWA16-3, and ADWA16-4) and a chimeric version of the parent ADWA-16 murine IgG (ADWA16-chimera) were measured for recombinant human and mouse αvβ8 using bio-layer interferometry. Anti-human Fab-CH1 tips were loaded with humanized anti-αvβ8 IgGs (ADWA16-1, ADWA16-2, ADWA16-3, and ADWA16-4) or chimeric ADWA-16 followed by an association step with either human or mouse αvβ8 (200 nM) and a subsequent dissociation step. All steps were carried out in binding buffer (25 mM Tris, 0.15 M NaCl, 0.05% Tween-20, pH 7.5). Binding affinities (shown in Table 2) were calculated using curve-fitting software. FIGS. 3A-3E show association/dissociation curves for each antibody.
This is another data set of the same source.

For assay [6], the target named is T3, recombinant human αvβ8. Described as above. On the procedure:
as §3
This is another data set of the same source.

The target of assay [7] is T1, cell surface-expressed human αvβ8. Briefly: FACS on SNB19 human astrocytoma cells, fluorescent secondary antibody. On the procedure:
(§4) The affinities of ADWA16-3.2 and ADWA11 were measured on SNB19 human astrocytoma cells by FACS. IgGs were incubated at various concentrations with SNB19 cells for 1 hour at RT in PBS. Cells were washed twice with PBS and binding was detected by incubation with fluorescently-labeled anti-human secondary antibodies followed by two PBS wash steps and analysis by FACS. Binding affinities were calculated using curve-fitting software.

For assay [8], the target named is T4, surface-expressed mouse αvβ8 on murine astrocytes (mouse, UniProt P43406 31-1044; Q0VBD0 22-767).
T4 construct: whole, on cells
The assay is described as follows: FACS titration on murine astrocytes. On the procedure: The affinities of ADWA16, ADWA11, and ADWA16-3.2 were measured on murine astrocytes by FACS. IgGs were incubated at various concentrations with the cells for 1 hr at RT in PBS. Cells were washed twice with PBS and binding was detected by incubation with fluorescently-labeled anti-human or anti-mouse secondary antibodies followed by two PBS wash steps and analysis by FACS.

Assay [9] has as its target T1, cell surface-expressed human αvβ8. Briefly: FACS titration on SNB19 human astrocytoma cells; Example 13 FACS on SNB19 cells; detected with anti-human secondary, ADWA11 format not stated. On the procedure:
as §4

Assay [10] concerns the target T5, cell surface expressed human αvβ6 (SW480 cells transfected to express αvβ6) (human, UniProt P06756 31-1048; P18564 22-788).
T5 construct: whole, on cells
Briefly: flow cytometry on transfected SW480 cells. On the procedure: (§5) The binding of ADWA16 and ADWA16-3.2 to cell surface expressed human αvβ3, αvβ5, αvβ6, and αvβ8 was tested by FACS. Flow cytometry was performed with either ADWA16-3 or ADWA16-3.2 with mock transfected SW480 cells (that express only αvβ5 integrin). SW480 cells were also transfected to express αvβ3 or αvβ6. SNB19 cells expressed αvβ3, αvβ5, and αvβ8.

For assay [11], the target named is T6, cell surface expressed human αvβ3 (SW480 cells transfected to express αvβ3) (human, UniProt P06756 31-1048; P05106 27-788).
T6 construct: whole, on cells
The assay is described as follows: flow cytometry on transfected SW480 cells. The procedure:
as §5
In general terms: A flow cytometer gives signals particle by particle.

The target of assay [12] is T1, cell surface-expressed human αvβ8. Briefly: FACS titration on SNB19 human astrocytoma cells; Example 7 FACS series on SNB19 cells, run beside ADWA16-3.2. On the procedure: (§6) The affinities of humanized, affinity-matured, and N-glycosylation site removed anti-αvβ8 IgGs (ADWA16-3 and ADWA16-3.2) were measured on SNB19 human astrocytoma cells by FACS. IgGs were incubated at various concentrations with SNB19 cells for 1 hr at RT in PBS. Cells were washed twice with PBS and binding was detected by incubation with fluorescently-labeled anti-human secondary antibodies followed by two PBS wash steps and analysis by FACS.

The target is the same in assay [13]. The assay is described as follows: FACS titration on SNB19 human astrocytoma cells; Table 3 FACS series on SNB19 cells, run beside ADWA16, 16-chimera and 16-1 to 16-4. The procedure:
as §1

In assay [14] the target is T7, cell surface expressed human αvβ5 (mock transfected SW480 cells) (human, UniProt P06756 31-1048; P18084 24-799).
T7 construct: whole, on cells
The assay is described as follows: flow cytometry on mock transfected SW480 cells (express only αvβ5); panel head 'A09 SW antihuman con'. The procedure:
as §5

The target of assay [15] is T1, cell surface-expressed human αvβ8. The assay is described as follows: FACS titration on SNB19 human astrocytoma cells; Example 13 FACS series on SNB19 cells, run beside ADWA11. The procedure: as §4
Assay [16] has the same target. Briefly: FACS titration on SNB19 human astrocytoma cells; Example 7 FACS series on SNB19 cells, run beside ADWA16-3. On the procedure: as §6

Residue numbers refer to the chain shown, from its start. Like-named read-outs stand apart in the source and are kept apart here.

T2 sequence (P43406 31-988 limits assumed, chain 1 of 2): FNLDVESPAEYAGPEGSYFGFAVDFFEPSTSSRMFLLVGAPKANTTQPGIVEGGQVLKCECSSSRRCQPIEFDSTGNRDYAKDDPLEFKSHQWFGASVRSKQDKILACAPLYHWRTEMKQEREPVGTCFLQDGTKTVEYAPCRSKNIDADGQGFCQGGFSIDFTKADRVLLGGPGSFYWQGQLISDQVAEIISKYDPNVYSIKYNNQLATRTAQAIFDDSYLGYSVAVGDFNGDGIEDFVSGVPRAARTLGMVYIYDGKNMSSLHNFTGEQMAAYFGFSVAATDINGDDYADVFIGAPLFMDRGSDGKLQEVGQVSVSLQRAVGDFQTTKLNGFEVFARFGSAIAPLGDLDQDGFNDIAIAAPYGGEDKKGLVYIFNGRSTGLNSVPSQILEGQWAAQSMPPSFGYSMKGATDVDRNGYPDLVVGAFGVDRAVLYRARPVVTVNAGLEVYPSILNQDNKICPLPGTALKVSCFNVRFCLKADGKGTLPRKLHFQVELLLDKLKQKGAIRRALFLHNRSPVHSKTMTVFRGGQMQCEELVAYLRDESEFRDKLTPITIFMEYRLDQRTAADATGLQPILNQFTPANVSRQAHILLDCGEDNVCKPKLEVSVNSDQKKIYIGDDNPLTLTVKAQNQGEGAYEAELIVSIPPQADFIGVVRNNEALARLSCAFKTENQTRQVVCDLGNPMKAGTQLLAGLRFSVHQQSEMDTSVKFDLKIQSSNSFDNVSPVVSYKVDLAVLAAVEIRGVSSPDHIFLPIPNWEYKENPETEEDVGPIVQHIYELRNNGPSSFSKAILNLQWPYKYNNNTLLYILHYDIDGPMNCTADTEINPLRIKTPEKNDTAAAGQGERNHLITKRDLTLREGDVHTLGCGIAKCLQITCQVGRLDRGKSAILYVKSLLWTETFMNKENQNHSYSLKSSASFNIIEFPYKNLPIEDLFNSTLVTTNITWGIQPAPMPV
T2 sequence (Q0VBD0 43-681 limits assumed, chain 2 of 2): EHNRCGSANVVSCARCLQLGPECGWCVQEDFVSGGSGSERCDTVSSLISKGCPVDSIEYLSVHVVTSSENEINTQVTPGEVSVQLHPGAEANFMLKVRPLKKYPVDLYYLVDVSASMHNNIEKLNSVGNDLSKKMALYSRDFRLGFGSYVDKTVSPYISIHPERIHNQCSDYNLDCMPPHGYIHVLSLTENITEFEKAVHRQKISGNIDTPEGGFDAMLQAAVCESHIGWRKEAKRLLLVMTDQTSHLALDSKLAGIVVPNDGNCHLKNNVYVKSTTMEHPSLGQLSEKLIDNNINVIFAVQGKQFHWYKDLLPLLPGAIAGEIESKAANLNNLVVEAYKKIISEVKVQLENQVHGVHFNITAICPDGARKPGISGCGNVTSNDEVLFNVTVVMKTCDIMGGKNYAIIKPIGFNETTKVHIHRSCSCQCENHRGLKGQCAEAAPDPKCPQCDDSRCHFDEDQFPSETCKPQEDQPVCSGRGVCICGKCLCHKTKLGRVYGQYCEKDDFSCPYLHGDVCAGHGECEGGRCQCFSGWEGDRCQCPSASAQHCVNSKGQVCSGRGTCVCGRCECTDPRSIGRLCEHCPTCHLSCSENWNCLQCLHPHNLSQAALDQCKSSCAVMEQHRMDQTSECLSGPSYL
T3 sequence (P06756 31-992 limits assumed, chain 1 of 2): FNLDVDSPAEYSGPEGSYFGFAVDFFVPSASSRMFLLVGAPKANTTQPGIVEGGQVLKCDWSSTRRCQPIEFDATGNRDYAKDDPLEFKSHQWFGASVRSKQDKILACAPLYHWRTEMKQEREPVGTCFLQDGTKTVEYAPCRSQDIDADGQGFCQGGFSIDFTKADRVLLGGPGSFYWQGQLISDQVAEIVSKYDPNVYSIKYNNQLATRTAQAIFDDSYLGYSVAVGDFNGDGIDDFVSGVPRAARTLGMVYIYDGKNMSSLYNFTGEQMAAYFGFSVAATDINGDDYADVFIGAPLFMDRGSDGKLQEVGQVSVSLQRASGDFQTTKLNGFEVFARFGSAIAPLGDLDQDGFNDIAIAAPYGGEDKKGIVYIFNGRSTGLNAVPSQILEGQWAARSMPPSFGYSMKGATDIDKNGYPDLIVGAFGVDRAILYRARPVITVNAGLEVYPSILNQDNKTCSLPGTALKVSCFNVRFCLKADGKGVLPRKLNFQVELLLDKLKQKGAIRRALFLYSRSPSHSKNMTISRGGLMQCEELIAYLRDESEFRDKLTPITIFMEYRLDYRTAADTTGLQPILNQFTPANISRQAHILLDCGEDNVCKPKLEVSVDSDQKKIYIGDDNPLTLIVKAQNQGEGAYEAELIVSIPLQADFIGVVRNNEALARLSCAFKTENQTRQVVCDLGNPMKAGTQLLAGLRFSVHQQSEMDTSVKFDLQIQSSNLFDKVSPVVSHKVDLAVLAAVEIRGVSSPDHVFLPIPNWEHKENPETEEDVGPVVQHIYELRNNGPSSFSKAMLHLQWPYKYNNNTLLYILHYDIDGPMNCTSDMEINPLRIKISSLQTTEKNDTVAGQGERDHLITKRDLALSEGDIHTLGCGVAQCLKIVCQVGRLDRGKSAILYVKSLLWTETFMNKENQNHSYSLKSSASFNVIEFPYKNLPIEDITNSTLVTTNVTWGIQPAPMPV
T3 sequence (P26012 43-684 limits assumed, chain 2 of 2): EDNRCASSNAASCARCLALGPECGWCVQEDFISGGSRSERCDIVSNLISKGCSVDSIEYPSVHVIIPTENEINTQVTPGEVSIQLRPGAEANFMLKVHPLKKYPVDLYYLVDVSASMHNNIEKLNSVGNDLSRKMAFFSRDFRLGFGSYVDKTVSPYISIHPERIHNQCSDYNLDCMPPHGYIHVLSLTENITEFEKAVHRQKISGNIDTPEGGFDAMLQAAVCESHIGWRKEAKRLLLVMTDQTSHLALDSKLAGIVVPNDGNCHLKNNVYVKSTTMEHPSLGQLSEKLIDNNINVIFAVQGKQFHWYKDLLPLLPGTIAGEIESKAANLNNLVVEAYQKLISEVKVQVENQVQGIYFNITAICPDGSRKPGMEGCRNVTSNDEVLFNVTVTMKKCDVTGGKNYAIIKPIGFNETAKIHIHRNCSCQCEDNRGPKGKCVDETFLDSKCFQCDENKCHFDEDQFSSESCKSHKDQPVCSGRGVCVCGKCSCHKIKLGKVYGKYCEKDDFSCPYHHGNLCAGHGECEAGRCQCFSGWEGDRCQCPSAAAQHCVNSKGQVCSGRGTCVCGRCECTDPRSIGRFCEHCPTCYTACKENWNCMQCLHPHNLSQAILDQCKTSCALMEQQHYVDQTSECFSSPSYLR
T1 sequence (P06756 31-1048, chain 1 of 2): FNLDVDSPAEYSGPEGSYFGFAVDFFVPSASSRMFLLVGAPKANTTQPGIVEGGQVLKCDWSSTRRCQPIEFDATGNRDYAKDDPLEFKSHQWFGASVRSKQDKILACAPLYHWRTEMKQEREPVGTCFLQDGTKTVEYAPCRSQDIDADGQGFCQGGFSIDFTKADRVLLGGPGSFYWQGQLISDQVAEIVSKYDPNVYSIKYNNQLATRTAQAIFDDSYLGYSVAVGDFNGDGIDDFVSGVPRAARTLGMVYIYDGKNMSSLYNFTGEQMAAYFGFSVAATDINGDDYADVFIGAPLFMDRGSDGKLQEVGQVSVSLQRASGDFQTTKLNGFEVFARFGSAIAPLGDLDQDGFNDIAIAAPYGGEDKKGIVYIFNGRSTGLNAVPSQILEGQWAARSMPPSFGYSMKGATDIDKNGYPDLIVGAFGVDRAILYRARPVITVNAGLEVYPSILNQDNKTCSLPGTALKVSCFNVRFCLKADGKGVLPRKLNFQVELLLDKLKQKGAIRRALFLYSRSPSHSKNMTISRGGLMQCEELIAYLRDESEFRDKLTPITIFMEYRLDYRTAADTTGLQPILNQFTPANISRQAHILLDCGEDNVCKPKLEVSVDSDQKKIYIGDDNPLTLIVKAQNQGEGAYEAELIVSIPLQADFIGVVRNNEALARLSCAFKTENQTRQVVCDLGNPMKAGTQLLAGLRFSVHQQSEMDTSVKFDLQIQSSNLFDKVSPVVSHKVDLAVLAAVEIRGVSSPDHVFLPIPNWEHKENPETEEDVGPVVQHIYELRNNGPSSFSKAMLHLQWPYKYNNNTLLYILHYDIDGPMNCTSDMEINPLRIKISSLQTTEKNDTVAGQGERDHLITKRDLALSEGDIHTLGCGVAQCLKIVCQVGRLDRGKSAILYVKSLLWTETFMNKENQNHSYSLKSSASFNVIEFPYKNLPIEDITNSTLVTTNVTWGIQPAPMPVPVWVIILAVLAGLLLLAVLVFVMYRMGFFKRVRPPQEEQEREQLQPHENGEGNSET
T1 sequence (P26012 43-769, chain 2 of 2): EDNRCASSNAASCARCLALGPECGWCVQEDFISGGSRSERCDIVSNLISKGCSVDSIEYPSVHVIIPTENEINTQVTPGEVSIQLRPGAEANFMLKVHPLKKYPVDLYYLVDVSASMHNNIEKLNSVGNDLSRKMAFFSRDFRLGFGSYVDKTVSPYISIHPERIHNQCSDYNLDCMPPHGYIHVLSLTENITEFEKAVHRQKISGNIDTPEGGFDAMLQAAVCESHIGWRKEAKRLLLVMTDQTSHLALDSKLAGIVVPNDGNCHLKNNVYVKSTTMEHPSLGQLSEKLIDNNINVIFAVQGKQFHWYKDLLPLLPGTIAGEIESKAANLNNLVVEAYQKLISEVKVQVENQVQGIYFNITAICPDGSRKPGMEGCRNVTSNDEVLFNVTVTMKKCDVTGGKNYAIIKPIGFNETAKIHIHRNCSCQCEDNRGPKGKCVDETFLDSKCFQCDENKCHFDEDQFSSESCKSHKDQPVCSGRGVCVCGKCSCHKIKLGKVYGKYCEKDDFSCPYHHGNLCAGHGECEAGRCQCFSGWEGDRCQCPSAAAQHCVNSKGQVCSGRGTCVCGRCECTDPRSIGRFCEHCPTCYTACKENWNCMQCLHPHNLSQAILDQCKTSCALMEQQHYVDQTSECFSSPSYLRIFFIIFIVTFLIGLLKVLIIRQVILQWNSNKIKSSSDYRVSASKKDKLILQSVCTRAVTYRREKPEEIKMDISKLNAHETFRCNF

B1: ADWA16 (antibody, V domains shown)
VH: QVQLQQSGAELAKPGASMKMSCKASGYTFSSYWIYWVKQRPGQGLEWIGYINPTTGYTEYNQKFRDKATLTADKSSNTAYMQLSSLTSEDSAVYYCATEGGNWEDYWGQGTTLTVSS
VL: DIQMTQTTSSLSASLGDRVTISCRASQDISNYLNWYQQKPDGTVKLLIYYTSRLYSGVPSRFSGSGSGTDYSLTISNLEPKDIATYYCQQFSELPRTFGGGTKLEIK
notes: Murine IgG, detected with anti-mouse secondary antibody; also called parent murine IgG; murine parent ADWA16
What is called Kd is a measure of binding affinity in units of concentration. The molecule B1 showed a Kd in assay [1] of 0.417 nM. Further, in assay [2], the “IC50, inhibition of SNB19 cell adhesion to TGFβ1-LAP” value worked out at 1.1 nM; the “IC50, inhibition of TGFβ activation (SNB19 / TMLC luciferase reporter co-culture)” value came to 0.364 nM; the “inhibition of adhesion of L229 cells to LAP (potency relative to ADWA11)” value is ~10 fold.

B2: ADWA16-chimera (antibody, V domains shown)
VH: B1 VH
VL: B1 VL
notes: It was captured on anti-human Fab-CH1 tips and detected with anti-human secondary, so it has human constant regions; also called chimeric ADWA-16; chimeric version of the parent ADWA16 murine IgG
With B2, the Kd in assay [1] turned out to be 0.302 nM; with recombinant mouse αvβ8 [3] it was 21 nM; in the assay with recombinant human αvβ8 [4], 0.95 nM; with recombinant mouse αvβ8 [5], 21 nM; with recombinant human αvβ8 [6] it was 0.95 nM.

B3: ADWA11 (antibody, V domains shown)
VH: EVQLQQSGAELVRPGAFVKLSCKASGFNIKDYYMNWVLQRPEQGLEWIGWIDPDNGNTIYDPKFQGKASITADTSSNTAYLQLSSLTSEDTAVYYCARRLLMDYWGQGTSVTVSS
VL: DIVMTQAAPSVPVTPGESVSISCRSTKSLLHFNGNTYLFWFLQRPGQSPQRLIYYMSNLASGVPDRFSGRGSGTDFTLRISRVEAEDVGVYYCMQSLEYPFTFGTGTKLEIK
notes: IgG; also called ADWA1l
Usually EC50 (read off the curve) stands for the concentration giving half of the maximal effect. High values mean weaker potency, low ones greater potency. On to B3, for which the “EC50 (read off the curve)” value in assay [7] was ~1 nM. Further, the Kd in assay [8] was determined as 5.6 nM; in [9], 1.04 nM. In assay [2], the “IC50, inhibition of SNB19 cell adhesion to TGFb1 LAP” value stood at 1.44 nM.

B4: ADWA16-3 (antibody, V domains shown)
VH: EVQLVESGGGLVQPGGSLRLSCAVSGYIFSSYWVYWVRQAPGKGLEWVGYINPTTGYTEYADSVKGRFTISRDNSKNTLYLQMNSLRAEDTAVYYCATEGGNWEDYWGQGTLVTVSS
VL: DIQMTQSPSSLSASVGDRVTITCRASQDISNYINWYQQKPGKAPKLLIYYTSRLYGGVPSRFSGSGSGTDFTLTISSLQPEDFATYYCQQFSELPRTFGQGTKVEIK
For the molecule B4, the binding result in [10], in assay [11] and in assay [14] was “no binding” each time. Moreover, the “IC50, inhibition of TGFβ activation (SNB19 / TMLC luciferase reporter co-culture)” value in assay [2] amounted to 1.36 nM. Also, the Kd with recombinant mouse αvβ8 [3] was 3.15 nM; with recombinant human αvβ8 [4], 1.16 nM; in assay [12] it was 0.83 nM; in assay [13] it was 0.389 nM; with recombinant mouse αvβ8 [5], 5 nM; with recombinant human αvβ8 [6] it was 0.83 nM.

B5: ADWA16-4 (antibody, V domains shown)
VH: B4 VH
VL: B4 VL with Q27K
For B5, the Kd was found to be 0.614 nM in assay [1], 8 nM with recombinant mouse αvβ8 [5] and 0.86 nM with recombinant human αvβ8 [6].

B6: ADWA16-1 (antibody, V domains shown)
VH: B4 VH
VL: B4 VL with G56S
B6: the Kd in assay [1] is 0.459 nM; with recombinant mouse αvβ8 [5] it was 4.8 nM; with recombinant human αvβ8 [6], 0.73 nM.

B7: ADWA16-2 (antibody, V domains shown)
VH: B4 VH
VL: B4 VL with Q27K, I33L, G56S
As to B7, the Kd turned out to be 0.498 nM in assay [1], 8.5 nM in the assay with recombinant mouse αvβ8 [5] and 2 nM with recombinant human αvβ8 [6].

B8: ADWA16-3.2 (antibody, V domains shown)
VH: B4 VH with N52S, E59V
VL: B4 VL
notes: also called humanized derivative of ADWA16
Turning to B8, the “EC50 (read off the curve)” value in assay [7] is ~0.4 nM. Also, the binding result in assay [10], in [11] and in [14] was “no binding” throughout. Moreover, the Kd in assay [8] turned out to be 1.1 nM; in assay [15] it was 0.392 nM; in assay [16], 0.512 nM; with recombinant mouse αvβ8 [3] it was 1.06 nM; in the assay with recombinant human αvβ8 [4], 0.688 nM. Further, the “IC50, inhibition of SNB19 cell adhesion to TGFb1 LAP” value in assay [2] came to 0.65 nM. For the same molecule, in assay [2], the “IC50, inhibition of SNB19 cell adhesion to TGFβ1-LAP” value stood at 2.1 nM. The “IC50, inhibition of TGFβ activation (SNB19 / TMLC luciferase reporter co-culture)” value in [2] is 0.58 nM.
